In the RNAGym collection of RNA variant scans (doi:10.1073/pnas.2313332121):
Fewer inactive variants are shown than the library holds.

B1: TPR 5TU (parent)
chain: GGAUCUUCUCGAUCUAACAAAAAAGACAAAUCUGCCACAAAGCUUGAGAGCAUCUUCGGAUGCAGAGGCGGCAGCCUUCGGUGGCGCGAUAGCGCCAACGUUCUCAACUAUGACACGCAAAACGCGUGCUCCGUUGAAUGGAGUUUAUCAUG

Variants of: B1
Experiment: polymerase ribozyme fitness, log enrichment relative to wild type (log ratio); higher = more active; in vitro selection for triplet polymerase activity
How it was run: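 Mutant libraries of each subunit of a heterodimeric triplet polymerase ribozyme were built by PCR and transcribed. Each library went through one round of in vitro selection in triplicate: annealing with biotinylated primer, partner subunit and triplets, frozen incubation at −7 °C, gel excision of extended constructs, streptavidin-bead capture and RT-PCR. Input and output libraries were Illumina-sequenced; only genotypes with ≥10 input reads and ≥1 read per output were kept. Fitness is log2(genotype enrichment/wild-type enrichment), using inverse-variance-weighted replicate averages.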

Variant | polymerase ribozyme fitness (log ratio)
G48A U61A | -2.86
G48A C51A U56A G62C | -3.16
A49C A52C G68U G84A G140A | ≤ -4.2
G50C A73C C95G C105G | ≤ -4.2
G48C G86A G141C U148G G152A | -4.03
A47G U55A A89C C95U U146A | -1.95
A47U A52G U53G U56A U145G | -3.64
G50A C54A C87A G128A | ≤ -4.2
A47U U55C G58C | -0.823
G50A C85U | -1.67
A47U A60U C95U G136A | -1.58
G48C C87A U130G | ≤ -4.2
G50A A73G A150G | ≤ -4.2
G50A C103G U111G A122U U151A | ≤ -4.2
A47G A91G | -2.73
A49U C85U U148A | ≤ -4.2
A49U U82G C105U C116U U145A | -2.58
A49U C75U G80A C96U A97C U145A U146G U148G | ≤ -4.2
G50A U56A C57A C114G G133A | -3.53
A49G C93A | -3.6
G48U U148C | -3.36
A47U U56A C85A U104A | -2.77
A49U U61C G70A G92U | ≤ -4.2
A47G G94C | -0.418

Variant | polymerase ribozyme fitness (log ratio)
A49G C85U | -0.982
A49G C85A | -2.52
A49U G58U U78A C96G C103U U135A | ≤ -4.2
G48C G68A C79U C99A | ≤ -4.2
A49C C93U G133A | ≤ -4.2
A47G U53A C75G U90C | ≤ -4.2
A49U G92U | -0.559
A49C G50C C85A C103U A106G G117U A122U C131U U139G | ≤ -4.2
A49U G94A A119C | -1.28
A47U A64G C93A | ≤ -4.2
G50A C57A G58C U77C G88C U139A | ≤ -4.2
G48A C54U G84A G92U C99G U109G G133C | ≤ -4.2
A49C U148A | ≤ -4.2
G48U U78A A91U U102G U144C | ≤ -4.2
G50A A142U | -2.45
A47U G50A C87G C105G C114U C129U | ≤ -4.2
A47G C87G C103U A110G | ≤ -4.2
A47G G83C C87G G112U A120C C125A G136U | ≤ -4.2
A49C G50C C54G G70A C87G A89G C103U | ≤ -4.2
A49G G50C G71A A91U U151A | ≤ -4.2
G48C U134A | -1.01
G50A G86C C99U U104G C116G | ≤ -4.2
A49U G84A G136U | -3.29
A49G G59C U77G U139A | ≤ -4.2

Variant | polymerase ribozyme fitness (log ratio)
G50C A60C A98U | -3.01
A49U A52C G59A A73U C76G G84U | ≤ -4.2
G48A G50A G58C C87G | ≤ -4.2
G50C A52C C118G | -3.55
G50A G141A | -0.962
A47C G83A G92U C108U | ≤ -4.2
A49U U56G C57U C96U U102G A147G | -3.99
G48C G59C U82G | 0.0275
A49U A52C A89G C95U | -2.69
A47G C85U A138G | -4.18
A49G C75A G136U A138C | ≤ -4.2
G50C A52C G128A | ≤ -4.2
A49C G81U C93G | ≤ -4.2
G48U C57U G58C G62C G67A U82A G86A | ≤ -4.2
A47U | -0.143
A47G | 0.239
G48U G80U C96G | ≤ -4.2
A49U A73G | -2.09
A47G G59A C103A C131U U134C | -2.12
G50A G92A U101G G117C | -3.96
G50A G94A C116G | -1.53
A49C G71C | ≤ -4.2
A47U U55A C95A A122G | -0.42
A49G C63U C85U | -0.955

Variant | polymerase ribozyme fitness (log ratio)
A47C U55G U56C C85U G133C G140C | ≤ -4.2
A49G U61A G71A U90C G94A A119G | ≤ -4.2
A49U G59C A73G A119C U134G G136A | -3.39
A47U C93U C96U G152A | -3.95
A49G A91U G124U G141C U148G | ≤ -4.2
A49C A91C | ≤ -4.2
A49C G80U | -4.02
A47G U82A A89C C93U | -1.39
G48A C85U C114U A122C | -2.44
G48C G84A G143A | -2.38
A49C C87U U151G | ≤ -4.2
G50A C75G U90G U111C C123G U139A U144C | ≤ -4.2
G50A U144A | -1.6
A47G A49G G71A C87U A97U A106G A107C U111G U134C | ≤ -4.2
G48A C54U G86C A106C | ≤ -4.2
A49U C75A A91G | -4.15
G48C C75U G81A G84U A97U G141U A150U | ≤ -4.2
A49C G50A G59U C69G C93U C99U U111G A150U | ≤ -4.2
A49G A119C | -0.604
G48U C93U C95A A97G A98U G117C | -3.43
G50A C76A C87A A97G C118U G141C | ≤ -4.2
A49U G74A C79A U90A G94A C123G G133U | ≤ -4.2
G48C G58U C105G C114G U135C | ≤ -4.2
G50A C99G | -3.05

Variant | polymerase ribozyme fitness (log ratio)
G50A U56A C95U | -1.99
A49G C51G U78C C96G G136A | ≤ -4.2
A49U A52G U61G C93U | -3.49
G50A A52C U55G G141C | ≤ -4.2
A49G A115U | -2.35
A49G G50C C69G C103G G136U | ≤ -4.2
G50A G68A C95A G140C | ≤ -4.2
A49G C93A G100A | ≤ -4.2
A47U G83C A98U | -0.618
G48C C85A | -2.58
A49G G92C | -2.39
A49G G92A | -3.9
G50A G74A U78C A113G G124C | ≤ -4.2
G48C A89C | -0.506
G50A C72U C85A | -2.69
A49G G71A G126A | ≤ -4.2
A47G G74A | -3.67
G48U U55G | -0.894
A47C U77A C79A A89U | ≤ -4.2
G50A A73U C93G G100U A107G U109C A142C A150U | ≤ -4.2
A47C U148A | -3.16
A47C U148G | -3.89
A49G U104C C149G | ≤ -4.2
G48C C57A C99U U130C | -2.37

Variant | polymerase ribozyme fitness (log ratio)
G48U C132A U139G | -3.31
G48C G59U G94A A119U | -1.58
A49C U82A C85U G88A G92U G133A G141U | ≤ -4.2
A47U U148C | -2.46
A49U G50A A60C | -2.62
A49U U56G C57U C96U U102G | -1.32
G50A G74C C87A U144C U151C | ≤ -4.2
A49U U55A C96A | -1.06
G50A C51U U55G G84A G128A C131G U135C | ≤ -4.2
A49G U53A C54U | -2.09
A47U C103G A115G G140C | ≤ -4.2
G48A G62A G68C C105U G126A G136C G141U U145G | ≤ -4.2
A47C U56A | -0.282
A49U U148C | -3.02
A47C G136A | 0.0265
G50A U78A G84A G100C A137G | ≤ -4.2
A49G G83C | -1.21
A47U A64G A138C U144C | ≤ -4.2
G48A C85U C96A C116G | -2.37
A47C G80A C95U U104G A120G | -0.454
A49C A66U C75G C87G C93A A98G A115U U127G G152C | ≤ -4.2
A49G A120U | -0.63
G50A G65C C76G G92C G100A C125G | ≤ -4.2
G48C G50A C54U C85A C129G | ≤ -4.2

Variant | polymerase ribozyme fitness (log ratio)
G50A G94U A121C | -2.21
G50A C118A A119U G143A | -2.71
G50A U53A G58C C79U A121G U134A U139G | ≤ -4.2
A47C U61A C85G C108A | ≤ -4.2
A49C G83C C95G U101A | ≤ -4.2
A49C C103G A115G | ≤ -4.2
A49U G50C C57U A89C C96A | -3.23
A49C A52G C93U A119U | ≤ -4.2
A49U G50U U53G A106U A122G | ≤ -4.2
A47C U55A | 0.201
G50C A89G A107C C123G | ≤ -4.2
G50A G83A C87A A91C G92A U146A | ≤ -4.2
G48A G50U U55A | -2.15
A49U A52G | -1.71
A49C G50C U78C G140C | ≤ -4.2
G48C C118G A120G | -3.82
G48C A52G | -1.29
G50A A52U C76G A150G | ≤ -4.2
A49G G50C U77A G92A C103G G117U | ≤ -4.2
A49C C87A C95A C123A | ≤ -4.2
G48C C51U C54U C57U U90C A138G U144A | ≤ -4.2
G50A C75U C76U U77A C96A A110G | ≤ -4.2
A49G U135C U145C | -2.6
